The supplement of paper PMC9112550, “Optimization of the antimicrobial peptide Bac7 by deep mutational scanning” (BMC Biology, 2022)

System: Escherichia coli TOP10
Experiment: shrunken log2 fold change of peptide-encoding DNA abundance (4.5 h post-induction vs induction); higher = less antimicrobial activity (less host growth inhibition)
Settings: time post-induction: 4.5 h; library: site-saturation at positions 5, 18, 19, 20
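Further: peptides expressed intracellularly from a pBAD plasmid library in pooled LB shake-flask culture, induced with 0.3% L-arabinose, DNA abundance read by NGS, three biological replicates, DESeq2 with apeglm shrinkage.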

Sequence: RRIRARPPRLPRPRPRPHCDPRP
- shrunken log2 fold change: 0.214

Sequence: RRIRARPPRLPRPRPRPHCIPRP
- shrunken log2 fold change: 0.102

Sequence: RRIRARPPRLPRPRPRPHCQPRP
- shrunken log2 fold change: 0.0405

Sequence: RRIRARPPRLPRPRPRPHEEPRP
- shrunken log2 fold change: 0.793

Sequence: RRIRARPPRLPRPRPRPHFAPRP
- shrunken log2 fold change: 0.733

Sequence: RRIRARPPRLPRPRPRPHGIPRP
- shrunken log2 fold change: 0.0225

Sequence: RRIRARPPRLPRPRPRPHHVPRP
- shrunken log2 fold change: -0.0499

Sequence: RRIRARPPRLPRPRPRPHIMPRP
- shrunken log2 fold change: -0.277

Sequence: RRIRARPPRLPRPRPRPHKFPRP
- shrunken log2 fold change: -0.0967

Sequence: RRIRARPPRLPRPRPRPHQFPRP
- shrunken log2 fold change: -0.024

Sequence: RRIRARPPRLPRPRPRPHQNPRP
- shrunken log2 fold change: 0.409

Sequence: RRIRARPPRLPRPRPRPHQRPRP
- shrunken log2 fold change: 0.0964

Sequence: RRIRARPPRLPRPRPRPHQWPRP
- shrunken log2 fold change: 0.137

Sequence: RRIRARPPRLPRPRPRPHRIPRP
- shrunken log2 fold change: -0.145

Sequence: RRIRARPPRLPRPRPRPHRLPRP
- shrunken log2 fold change: -0.0138

Sequence: RRIRARPPRLPRPRPRPHSKPRP
- shrunken log2 fold change: -0.154

Sequence: RRIRARPPRLPRPRPRPHSMPRP
- shrunken log2 fold change: 0.104

Sequence: RRIRARPPRLPRPRPRPHTAPRP
- shrunken log2 fold change: 0.172

Sequence: RRIRARPPRLPRPRPRPHTMPRP
- shrunken log2 fold change: -0.0952

Sequence: RRIRARPPRLPRPRPRPHTVPRP
- shrunken log2 fold change: -0.0287

Sequence: RRIRARPPRLPRPRPRPHVLPRP
- shrunken log2 fold change: -0.0367

Sequence: RRIRARPPRLPRPRPRPHWDPRP
- shrunken log2 fold change: 0.116

Sequence: RRIRARPPRLPRPRPRPHWQPRP
- shrunken log2 fold change: 0.124

Sequence: RRIRARPPRLPRPRPRPICMPRP
- shrunken log2 fold change: 0.055

Sequence: RRIRARPPRLPRPRPRPIDSPRP
- shrunken log2 fold change: -0.0515

Sequence: RRIRARPPRLPRPRPRPIETPRP
- shrunken log2 fold change: -0.18

Sequence: RRIRARPPRLPRPRPRPIEWPRP
- shrunken log2 fold change: 0.638

Sequence: RRIRARPPRLPRPRPRPIFHPRP
- shrunken log2 fold change: 0.183

Sequence: RRIRARPPRLPRPRPRPIFNPRP
- shrunken log2 fold change: 0.0119

Sequence: RRIRARPPRLPRPRPRPIFPPRP
- shrunken log2 fold change: 0.32

Sequence: RRIRARPPRLPRPRPRPIGHPRP
- shrunken log2 fold change: 0.0734

Sequence: RRIRARPPRLPRPRPRPIHVPRP
- shrunken log2 fold change: -0.143

Sequence: RRIRARPPRLPRPRPRPIHYPRP
- shrunken log2 fold change: -0.241

Sequence: RRIRARPPRLPRPRPRPIICPRP
- shrunken log2 fold change: 0.106

Sequence: RRIRARPPRLPRPRPRPIIPPRP
- shrunken log2 fold change: -0.256

Sequence: RRIRARPPRLPRPRPRPIKHPRP
- shrunken log2 fold change: -0.0409

Sequence: RRIRARPPRLPRPRPRPIKIPRP
- shrunken log2 fold change: -0.095

Sequence: RRIRARPPRLPRPRPRPILWPRP
- shrunken log2 fold change: 0.254

Sequence: RRIRARPPRLPRPRPRPIMSPRP
- shrunken log2 fold change: 0.0485

Sequence: RRIRARPPRLPRPRPRPIMWPRP
- shrunken log2 fold change: 0.217

Sequence: RRIRARPPRLPRPRPRPINMPRP
- shrunken log2 fold change: -0.346

Sequence: RRIRARPPRLPRPRPRPINTPRP
- shrunken log2 fold change: -0.631

Sequence: RRIRARPPRLPRPRPRPIQRPRP
- shrunken log2 fold change: 0.112

Sequence: RRIRARPPRLPRPRPRPIRDPRP
- shrunken log2 fold change: 0.114

Sequence: RRIRARPPRLPRPRPRPITAPRP
- shrunken log2 fold change: 0.232

Sequence: RRIRARPPRLPRPRPRPIWDPRP
- shrunken log2 fold change: 0.264

Sequence: RRIRARPPRLPRPRPRPIWTPRP
- shrunken log2 fold change: -0.144

Sequence: RRIRARPPRLPRPRPRPIWVPRP
- shrunken log2 fold change: 0.226

Sequence: RRIRARPPRLPRPRPRPIYTPRP
- shrunken log2 fold change: -0.387

Sequence: RRIRARPPRLPRPRPRPKAMPRP
- shrunken log2 fold change: 0.00028

Sequence: RRIRARPPRLPRPRPRPKCIPRP
- shrunken log2 fold change: 0.0328

Sequence: RRIRARPPRLPRPRPRPKCVPRP
- shrunken log2 fold change: 0.463

Sequence: RRIRARPPRLPRPRPRPKCWPRP
- shrunken log2 fold change: 0.622

Sequence: RRIRARPPRLPRPRPRPKDEPRP
- shrunken log2 fold change: 0.687

Sequence: RRIRARPPRLPRPRPRPKGSPRP
- shrunken log2 fold change: 0.199

Sequence: RRIRARPPRLPRPRPRPKGWPRP
- shrunken log2 fold change: 0.862

Sequence: RRIRARPPRLPRPRPRPKHSPRP
- shrunken log2 fold change: 0.0875

Sequence: RRIRARPPRLPRPRPRPKKGPRP
- shrunken log2 fold change: 0.364

Sequence: RRIRARPPRLPRPRPRPKKSPRP
- shrunken log2 fold change: 1.2

Sequence: RRIRARPPRLPRPRPRPKKTPRP
- shrunken log2 fold change: -0.0919

Sequence: RRIRARPPRLPRPRPRPKMHPRP
- shrunken log2 fold change: 0.364

Sequence: RRIRARPPRLPRPRPRPKMIPRP
- shrunken log2 fold change: -0.0208

Sequence: RRIRARPPRLPRPRPRPKMYPRP
- shrunken log2 fold change: 0.152

Sequence: RRIRARPPRLPRPRPRPKNHPRP
- shrunken log2 fold change: -0.125

Sequence: RRIRARPPRLPRPRPRPKPVPRP
- shrunken log2 fold change: 0.882

Sequence: RRIRARPPRLPRPRPRPKRNPRP
- shrunken log2 fold change: 0.487

Sequence: RRIRARPPRLPRPRPRPKSDPRP
- shrunken log2 fold change: 0.239

Sequence: RRIRARPPRLPRPRPRPKTKPRP
- shrunken log2 fold change: 0.0731

Sequence: RRIRARPPRLPRPRPRPKTMPRP
- shrunken log2 fold change: 0.352

Sequence: RRIRARPPRLPRPRPRPKWDPRP
- shrunken log2 fold change: 0.373

Sequence: RRIRARPPRLPRPRPRPKWGPRP
- shrunken log2 fold change: 0.418

Sequence: RRIRARPPRLPRPRPRPKWSPRP
- shrunken log2 fold change: 0.354

Sequence: RRIRARPPRLPRPRPRPKYAPRP
- shrunken log2 fold change: 0.354

Sequence: RRIRARPPRLPRPRPRPKYQPRP
- shrunken log2 fold change: -0.112

Sequence: RRIRARPPRLPRPRPRPKYSPRP
- shrunken log2 fold change: -0.39

Sequence: RRIRARPPRLPRPRPRPLAGPRP
- shrunken log2 fold change: 2.52

Sequence: RRIRARPPRLPRPRPRPLDWPRP
- shrunken log2 fold change: 1

Sequence: RRIRARPPRLPRPRPRPLEDPRP
- shrunken log2 fold change: 0.241

Sequence: RRIRARPPRLPRPRPRPLFCPRP
- shrunken log2 fold change: 0.00332

Sequence: RRIRARPPRLPRPRPRPLFDPRP
- shrunken log2 fold change: 0.28

Sequence: RRIRARPPRLPRPRPRPLFIPRP
- shrunken log2 fold change: -0.331

Sequence: RRIRARPPRLPRPRPRPLFWPRP
- shrunken log2 fold change: 0.678

Sequence: RRIRARPPRLPRPRPRPLGLPRP
- shrunken log2 fold change: 0.353

Sequence: RRIRARPPRLPRPRPRPLHVPRP
- shrunken log2 fold change: 0.0439

Sequence: RRIRARPPRLPRPRPRPLIEPRP
- shrunken log2 fold change: 0.388

Sequence: RRIRARPPRLPRPRPRPLKAPRP
- shrunken log2 fold change: 0.16

Sequence: RRIRARPPRLPRPRPRPLKCPRP
- shrunken log2 fold change: 0.381

Sequence: RRIRARPPRLPRPRPRPLLTPRP
- shrunken log2 fold change: 0.667

Sequence: RRIRARPPRLPRPRPRPLMDPRP
- shrunken log2 fold change: 0.634

Sequence: RRIRARPPRLPRPRPRPLMEPRP
- shrunken log2 fold change: 0.493

Sequence: RRIRARPPRLPRPRPRPLPDPRP
- shrunken log2 fold change: 1.07

Sequence: RRIRARPPRLPRPRPRPLPMPRP
- shrunken log2 fold change: 0.306

Sequence: RRIRARPPRLPRPRPRPLQGPRP
- shrunken log2 fold change: 0.0704

Sequence: RRIRARPPRLPRPRPRPLRTPRP
- shrunken log2 fold change: 0.541

Sequence: RRIRARPPRLPRPRPRPLSGPRP
- shrunken log2 fold change: 0.334

Sequence: RRIRARPPRLPRPRPRPLTDPRP
- shrunken log2 fold change: 0.163

Sequence: RRIRARPPRLPRPRPRPLTHPRP
- shrunken log2 fold change: 0.227

Sequence: RRIRARPPRLPRPRPRPLTMPRP
- shrunken log2 fold change: 0.637

Sequence: RRIRARPPRLPRPRPRPLTRPRP
- shrunken log2 fold change: 0.284

Sequence: RRIRARPPRLPRPRPRPLVDPRP
- shrunken log2 fold change: 0.498

Sequence: RRIRARPPRLPRPRPRPLVEPRP
- shrunken log2 fold change: 0.666

Sequence: RRIRARPPRLPRPRPRPLVRPRP
- shrunken log2 fold change: 0.264

Sequence: RRIRARPPRLPRPRPRPLWLPRP
- shrunken log2 fold change: 0.302

Sequence: RRIRARPPRLPRPRPRPLWMPRP
- shrunken log2 fold change: 0.264

Sequence: RRIRARPPRLPRPRPRPLYAPRP
- shrunken log2 fold change: 0.0495

Sequence: RRIRARPPRLPRPRPRPLYKPRP
- shrunken log2 fold change: -0.362

Sequence: RRIRARPPRLPRPRPRPLYNPRP
- shrunken log2 fold change: -0.225

Sequence: RRIRARPPRLPRPRPRPLYPPRP
- shrunken log2 fold change: -0.221

Sequence: RRIRARPPRLPRPRPRPMADPRP
- shrunken log2 fold change: 0.357

Sequence: RRIRARPPRLPRPRPRPMAGPRP
- shrunken log2 fold change: 0.163

Sequence: RRIRARPPRLPRPRPRPMCIPRP
- shrunken log2 fold change: 0.143

Sequence: RRIRARPPRLPRPRPRPMCQPRP
- shrunken log2 fold change: 0.13

Sequence: RRIRARPPRLPRPRPRPMDHPRP
- shrunken log2 fold change: 0.267

Sequence: RRIRARPPRLPRPRPRPMEHPRP
- shrunken log2 fold change: -0.223

Sequence: RRIRARPPRLPRPRPRPMEMPRP
- shrunken log2 fold change: 0.163

Sequence: RRIRARPPRLPRPRPRPMEVPRP
- shrunken log2 fold change: -0.0122

Sequence: RRIRARPPRLPRPRPRPMGRPRP
- shrunken log2 fold change: 0.275

Sequence: RRIRARPPRLPRPRPRPMHWPRP
- shrunken log2 fold change: 0.548

Sequence: RRIRARPPRLPRPRPRPMLAPRP
- shrunken log2 fold change: 0.881

Sequence: RRIRARPPRLPRPRPRPMLNPRP
- shrunken log2 fold change: -0.167

Sequence: RRIRARPPRLPRPRPRPMMIPRP
- shrunken log2 fold change: 0.313

Sequence: RRIRARPPRLPRPRPRPMRNPRP
- shrunken log2 fold change: 0.756

Sequence: RRIRARPPRLPRPRPRPMTPPRP
- shrunken log2 fold change: 0.913

Sequence: RRIRARPPRLPRPRPRPMVNPRP
- shrunken log2 fold change: 0.309

Sequence: RRIRARPPRLPRPRPRPMVVPRP
- shrunken log2 fold change: -0.0787

Sequence: RRIRARPPRLPRPRPRPMVWPRP
- shrunken log2 fold change: 1.07

Sequence: RRIRARPPRLPRPRPRPNEPPRP
- shrunken log2 fold change: -0.115

Sequence: RRIRARPPRLPRPRPRPNGCPRP
- shrunken log2 fold change: -0.0858

Sequence: RRIRARPPRLPRPRPRPNGLPRP
- shrunken log2 fold change: -0.0319

Sequence: RRIRARPPRLPRPRPRPNGTPRP
- shrunken log2 fold change: 0.021

Sequence: RRIRARPPRLPRPRPRPNGVPRP
- shrunken log2 fold change: -0.00122

Sequence: RRIRARPPRLPRPRPRPNHDPRP
- shrunken log2 fold change: -0.141

Sequence: RRIRARPPRLPRPRPRPNHIPRP
- shrunken log2 fold change: -0.8

Sequence: RRIRARPPRLPRPRPRPNHLPRP
- shrunken log2 fold change: -0.000432

Sequence: RRIRARPPRLPRPRPRPNKKPRP
- shrunken log2 fold change: -0.00857

Sequence: RRIRARPPRLPRPRPRPNKQPRP
- shrunken log2 fold change: 0.165

Sequence: RRIRARPPRLPRPRPRPNKWPRP
- shrunken log2 fold change: -0.0519

Sequence: RRIRARPPRLPRPRPRPNLKPRP
- shrunken log2 fold change: 0.164

Sequence: RRIRARPPRLPRPRPRPNMEPRP
- shrunken log2 fold change: -0.0484

Sequence: RRIRARPPRLPRPRPRPNMVPRP
- shrunken log2 fold change: -0.175

Sequence: RRIRARPPRLPRPRPRPNNYPRP
- shrunken log2 fold change: -0.356

Sequence: RRIRARPPRLPRPRPRPNQFPRP
- shrunken log2 fold change: -0.014

Sequence: RRIRARPPRLPRPRPRPNQMPRP
- shrunken log2 fold change: 0.143

Sequence: RRIRARPPRLPRPRPRPNRIPRP
- shrunken log2 fold change: -0.215

Sequence: RRIRARPPRLPRPRPRPNRLPRP
- shrunken log2 fold change: 0.0862

Sequence: RRIRARPPRLPRPRPRPNSMPRP
- shrunken log2 fold change: -0.527

Sequence: RRIRARPPRLPRPRPRPNTSPRP
- shrunken log2 fold change: -0.0188

Sequence: RRIRARPPRLPRPRPRPNTWPRP
- shrunken log2 fold change: 0.0711

Sequence: RRIRARPPRLPRPRPRPNVVPRP
- shrunken log2 fold change: -0.0083

Sequence: RRIRARPPRLPRPRPRPNWHPRP
- shrunken log2 fold change: 0.163
